The nature of data set [1]: anti-V5 immunoblot of culture medium. (In general: Immunoblotting shows a protein as a band on a membrane.)
Data set [2] in a line: NP-40-insoluble fraction, anti-V5 immunoblot.
Setting [3] is: glycan lost, control: wild type.
[4] abbreviates: glycan changed form, control: untreated.
Setting [5] is: glycan lost, control: untreated.

As for Surfactant protein A2 (SP-A2): N207A, the expression_or_secretion entry in data set [1] (setting [3]) is “decreases”. Also, the “other: NP-40-insoluble aggregation” value in data set [2] (setting [3]) was “increases”.

As for Surfactant protein A2 (SP-A2): N207Q, in data set [1] (setting [3]), the expression_or_secretion entry is recorded as “decreases”. Also, in data set [2] (setting [3]), the “other: NP-40-insoluble aggregation” value is given as “increases”.

Turning to Surfactant protein A2 (SP-A2): N207S, the expression_or_secretion entry in data set [1] (setting [3]) was “decreases”. Moreover, the “other: NP-40-insoluble aggregation” value in data set [2] (setting [3]) is on record as “increases”.

Turning to Surfactant protein A2 (SP-A2): N207T, in data set [1] (setting [3]), the expression_or_secretion result is “decreases”. Besides, in data set [2] (setting [3]), the “other: NP-40-insoluble aggregation” value was “increases”.

As for “Surfactant protein A2 (SP-A2): swainsonine”, the expression_or_secretion result in data set [1] (setting [4]) was “no change”. Besides, the “other: NP-40-insoluble aggregation” value in data set [2] (setting [4]) is reported as “no change”.

In the case of “Surfactant protein A2 (SP-A2): tunicamycin”, the expression_or_secretion result in data set [1] (setting [5]) is recorded as “decreases”. The “other: NP-40-insoluble aggregation” value in data set [2] (setting [5]) is recorded as “increases”.

Source of the values: paper PMC3463533.
